2 molecules from patent US20200283528A1 can be followed below.

Experiment [1] concerns the target human PDL1 expressed on cells (human) (UniProt Q9NZQ7). Briefly: cell-based or functional assay.
Experiment [2] has as its target Fc tagged human PDL1 (human) (UniProt Q9NZQ7). Briefly: SPR Biacore T200; PDL1-Fc captured; molecule 0.12-90 nM. (In general: In SPR one partner is held on a chip, and binding of the other changes the refractive index at the surface.)
The target in experiment [3] is human CD137-Fc chimeric protein (human) (UniProt Q07011). Briefly: SPR Biacore T200; CD137-Fc captured; molecule as analyte.
The target in experiment [4] is human PDL1 (recombinant, soluble) (human) (UniProt Q9NZQ7). Briefly: PDL1/PD-1 competition ELISA; PD-1 coated, biotinylated PDL1 1 ng/ml. On the technique in general: In an ELISA, binding on a coated surface is turned into a signal by an enzyme label.
Experiment [5] has the same target. Briefly: PDL1/B7-1 competition ELISA; B7-1 coated, biotinylated PDL1 40 ng/ml.

Usually Kd stands for the constant that tells how readily two partners part at equilibrium. A higher Kd goes with weaker binding. Usually koff stands for the first-order rate constant of dissociation. The kon is the second-order rate constant of association. Low values mean slow association, high ones fast association. The term IC50 denotes the concentration that gives 50% inhibition.

B1: PRO1430 (scDb-scFv: 37-20-B03 sc01 / 38-02-A04 sc013 / 19-01-H04 sc03) (protein, from a related filing)
chain: DIQMTQSPSSLSASVGDRVTITCQASQSIGTYLAWYQQKPGKAPKLLIYRAFILASGVPSRFSGSGSGTDFTLTISSLQPEDFATYYCQSNFYSDSTTIGPNAFGTGTKVTVLGGGGGSEVQLVESGGGLVQPGGSLRLSCAASGFSFSNSYWICWVRQAPGKCLEWIGCTFVGSSDSTYYANWAKGRFTISRDNSKNTVYLQMNSLRAEDTAVYYCARHPSDAVYGYANNLWGQGTLVTVSSGGGGSGGGGSGGGGSGGGGSIQMTQSPSSLSASVGDRVTITCQASQSINNVLAWYQQKPGKAPKLLIYRASTLASGVPSRFSGSGSGTDFTLTISSLQPEDFATYYCQSSYGNYGDFGCGTKVTVLGGGGGSQVQLQESGPGLVKPSETLSLTCKVSGFSFNSDYWIYWIRQPPGKGLEWIGSIYGGSSGNTQYASWAQGRVTISVDSSKNQFSLKLSSVTAADTAVYYCARGYVDYGGATDLWGQGTLVTVSSGGGGSGGGGSIQMTQSPSSLSASVGDRVTITCQSSESVYSNNQLSWYQQKPGQPPKLLIYDASDLASGVPSRFSGSGSGTDFTLTISSLQPEDFATYYCAGGFSSSSDTAFGGGTKLTVLGGGGGSGGGGSGGGGSGGGGSEVQLVESGGGLVQPGGSLRLSCAASGFSLSSNAMGWVRQAPGKGLEYIGIISVGGFTYYASWAKGRFTISRDNSKNTVYLQMNSLRAEDTATYFCARDRHGGDSSGAFYLWGQGTLVTVSS
In experiment [1], B1 returned an NF-AT potency assay IC50 (with HSA) of 16.2 ng/mL and an NF-AT potency assay rel. IC50 (IC50, Avelumab/IC50, test molecule) (with HSA) of 1.45. In experiment [2], the Kd came to 0.0045 nM, the koff was determined as 2.4e-05 s⁻¹ and the kon worked out at 5.3e+06 M⁻¹ s⁻¹. In experiment [3], this molecule came in with a Kd of 1.5 nM, a koff of 0.00071 s⁻¹ and a kon of 460000 M⁻¹ s⁻¹. In experiment [4], the IC50 is 1.92 ng/mL and the rel. IC50 (IC50, Avelumab/IC50, test molecule) worked out at 0.73. Besides, in experiment [5], the IC50 was determined as 2.42 ng/mL and the rel. IC50 (IC50, Avelumab/IC50, test molecule) came to 1.15.

B2: PRO1479 (scDb-scFv: 37-20-B03 sc09.1 / 38-02-A04 sc013 / 19-01-H04 sc03) (protein, from a related filing)
chain: DIQMTQSPASLSASVGDRVTITCQASQSIGTYLAWYQQKPGKPPKLLIYRAFILASGVPSRFSGSGSGTDFTLTISSLQPEDFATYYCQSNFYSDSTTIGPNAFGTGTKVTVLGGGGGSEVQLVESGGGLVQPGGSLRLSCAASGFSFSNSYWICWVRQAPGKCLEWIGCTFVGSSDSTYYANWAKGRFTISRDNSKNTVYLQMNSLRAEDTAVYYCARHPSDAVYGYANNLWGQGTLVTVSSGGGGSGGGGSGGGGSGGGGSIQMTQSPSSLSASVGDRVTITCQASQSINNVLAWYQQKPGKAPKLLIYRASTLASGVPSRFSGSGSGTDFTLTISSLQPEDFATYYCQSSYGNYGDFGCGTKVTVLGGGGGSEVQLVESGGGLVQPGGSLRLSCAASGFSFNSDYWIYWVRQAPGKGLEWIASIYGGSSGNTQYASWAQGRFTISRDNSKNTVYLQMNSLRAEDTAVYFCARGYVDYGGATDLWGQGTLVTVSSGGGGSGGGGSIQMTQSPSSLSASVGDRVTITCQSSESVYSNNQLSWYQQKPGQPPKLLIYDASDLASGVPSRFSGSGSGTDFTLTISSLQPEDFATYYCAGGFSSSSDTAFGGGTKLTVLGGGGGSGGGGSGGGGSGGGGSEVQLVESGGGLVQPGGSLRLSCAASGFSLSSNAMGWVRQAPGKGLEYIGIISVGGFTYYASWAKGRFTISRDNSKNTVYLQMNSLRAEDTATYFCARDRHGGDSSGAFYLWGQGTLVTVSS
Regarding B2, in experiment [1], the NF-AT potency assay IC50 (with HSA) turned out to be 50.4 ng/mL and the NF-AT potency assay rel. IC50 (IC50, Avelumab/IC50, test molecule) (with HSA) came out at 1.04. In experiment [2], this molecule showed a Kd of 0.0092 nM, a koff of 3.9e-05 s⁻¹ and a kon of 4.2e+06 M⁻¹ s⁻¹. In experiment [3], this molecule yielded a Kd of 1.7 nM, a koff of 0.00054 s⁻¹ and an on-rate (kon) of 330000 M⁻¹ s⁻¹. Also, in experiment [4], the IC50 was found to be 2.65 ng/mL and the rel. IC50 (IC50, Avelumab/IC50, test molecule) was found to be 0.86. In experiment [5], the IC50 is 10.7 ng/mL and the rel. IC50 (IC50, Avelumab/IC50, test molecule) stood at 1.38.
